Measured values taken from US6927041B2, “Human neuropeptide Y-like G protein-coupled receptor” (Bayer Corporation, priority 2000, dated 2005).
Where no end group is shown, it is not given here.

molecular target: T1, human NPY-like GPCR (Homo sapiens, UniProt Q96P65); assay: Binding affinity of known peptides for the human NPY-like GPCR; details: human neuropeptide Y-like G protein-coupled receptor (SEQ ID NO:2); qualitative statement
T1 construct: expressed in transfected cells; host or cells: HEK293 (human embryonic kidney 293) cells, membrane preparation
T1 sequence (Q96P65 1-431): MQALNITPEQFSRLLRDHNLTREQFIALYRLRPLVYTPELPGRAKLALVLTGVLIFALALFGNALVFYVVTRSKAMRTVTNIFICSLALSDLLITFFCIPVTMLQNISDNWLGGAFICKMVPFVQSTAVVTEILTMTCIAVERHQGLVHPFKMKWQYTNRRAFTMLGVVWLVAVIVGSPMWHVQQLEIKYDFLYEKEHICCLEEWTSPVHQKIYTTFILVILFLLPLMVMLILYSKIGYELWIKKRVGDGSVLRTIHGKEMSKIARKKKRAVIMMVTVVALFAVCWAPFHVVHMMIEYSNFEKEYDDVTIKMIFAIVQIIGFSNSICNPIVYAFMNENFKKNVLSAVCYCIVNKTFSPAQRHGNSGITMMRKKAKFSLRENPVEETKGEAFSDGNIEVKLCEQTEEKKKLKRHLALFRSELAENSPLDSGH
Experimental: Human embryonic kidney 293 cells transfected with a polynucleotide that expresses human NPY-like GPCR are scraped from a culture flask into 5 ml of Tris HCl, 5 mM EDTA, pH 7.5, and lysed by sonication. Cell lysates are centrifuged at 1000 rpm for 5 minutes at 4° C. The supernatant is centrifuged at 30,000×g for 20 minutes at 4° C. The pellet is suspended in binding buffer containing 50 mM Tris HCl, 5 mM MgSO4, 1 mM EDTA, 100 mM NaCl, pH 7.5, supplemented with 0.1% BSA, 2 μg/ml aprotinin, […], and 10 μg/ml phosphoramidon. Optimal membrane suspension dilutions, defined as the protein concentration required to bind less than 10% of the added radioligand, are added to 96-well polypropylene microtiter plates containing ^125I-labeled ligand or test compound, non-labeled peptides, and binding buffer to a final volume of 250 μl.
In equilibrium saturation binding assays, membrane preparations are incubated in the presence of increasing concentrations (0.1 nM to 4 nM) of ^125I-labeled ligand or test compound (specific activity 2200 Ci/mmol). The binding affinities of different test compounds are determined in equilibrium competition binding assays, using 0.1 nM ^125I-peptide in the presence of twelve different concentrations of each test compound.
Binding reaction mixtures are incubated for one hour at 30° C. […] Radioactivity is measured by scintillation counting, and data are analyzed by a computerized non-linear regression program.
Non-specific binding is defined as the amount of radioactivity remaining after incubation of membrane protein in the presence of 100 nM of unlabeled peptide. Protein concentration is measured by the Bradford method using Bio-Rad Reagent, with bovine serum albumin as a standard. A test compound which […] the radioactivity of membrane protein by at least 15% relative to radioactivity of membrane protein that was not incubated with a test compound is identified as a compound which binds to a human NPY-like GPCR polypeptide.

Row | binding affinity for the receptor | Substance
1 | do not appear to have binding affinity | Neuropeptide Y
2 | do not appear to have binding affinity | orexin-A (QPLPDCCRQKTCSCRLYELLHGAGNHAAGILTL; ends and bridges not checked; cysteine pairing not given here; UniProt O43612 34-66, looked up)
3 | do not appear to have binding affinity | peptide YY: peptide that stimulates the Y1 receptor
